Holding throughout (conditions): one partner purified
The target in test [1] is T1, mouse C-C motif chemokine receptor-like 2 (CCRL2) isoform b, on HEK-muCCRL2 cells (mouse, UniProt O35457 1-360).
T1 construct: C-C motif chemokine receptor-like 2 (CCRL2), mouse, printed as isoform b, codon optimized cDNA; also called murine CCRL2
T1 sequence (looked up): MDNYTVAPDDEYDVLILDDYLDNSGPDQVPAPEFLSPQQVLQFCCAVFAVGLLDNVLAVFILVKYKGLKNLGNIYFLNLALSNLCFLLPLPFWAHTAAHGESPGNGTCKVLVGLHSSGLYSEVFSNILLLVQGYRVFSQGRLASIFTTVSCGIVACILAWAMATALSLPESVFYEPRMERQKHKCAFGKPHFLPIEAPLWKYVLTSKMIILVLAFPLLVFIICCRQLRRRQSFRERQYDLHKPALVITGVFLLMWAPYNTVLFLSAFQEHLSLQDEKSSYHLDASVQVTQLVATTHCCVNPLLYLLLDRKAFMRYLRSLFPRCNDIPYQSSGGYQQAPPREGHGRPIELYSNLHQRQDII
Nature of the test: flow cytometry on cells; competition: HEK-huCCRL2 or HEK-muCCRL2 cells incubated with serially diluted unlabeled competitor at 4°C 45 min, then 10 nM biotin-labeled chemerin at 4°C 45 min, RRX-streptavidin; IC50 from four-parameter fit. On the technique in general: Flow cytometry measures light scatter and fluorescence of single cells or particles in a stream.

Test [2] addresses T1, mouse C-C motif chemokine receptor-like …. In words: flow cytometry on cells; serially diluted biotin-labeled ligand on HEK-huCCRL2, HEK-muCCRL2 or parental HEK cells (2x10^4 cells/well, 384-well), PBS + 0.1% BSA, 4°C 45 min, detected with RRX-streptavidin; MFI normalized to parental HEK cell binding; EC50 from four-parameter fit.
Test [3] addresses T2, human C-C motif chemokine receptor-like 2 (CCRL2) isoform b, on HEK-huCCRL2 cells (human, UniProt O00421 1-344).
T2 construct: C-C motif chemokine receptor-like 2 (CCRL2), human, isoform b, codon optimized cDNA; No tag is mentioned for the construct; also called human CCRL2
T2 sequence (looked up): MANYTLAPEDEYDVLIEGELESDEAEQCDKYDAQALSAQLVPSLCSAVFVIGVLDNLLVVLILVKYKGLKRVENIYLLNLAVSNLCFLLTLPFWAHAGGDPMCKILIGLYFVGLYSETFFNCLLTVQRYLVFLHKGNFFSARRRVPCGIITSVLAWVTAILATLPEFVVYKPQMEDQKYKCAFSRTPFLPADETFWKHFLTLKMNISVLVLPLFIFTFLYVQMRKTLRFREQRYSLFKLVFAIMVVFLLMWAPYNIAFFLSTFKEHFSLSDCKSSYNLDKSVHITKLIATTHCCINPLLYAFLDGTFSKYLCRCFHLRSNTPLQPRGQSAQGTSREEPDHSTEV
In words: SPR; live-cell SPR microscopy (SPRm 200); HEK-huCCRL2 cells seeded on collagen-coated gold slides; analyte injected at 150 ul/min, contact 3 min, dissociation 5 min; running buffer PBS + 0.1% BSA; chemerin 10-400 nM; 1:1 binding model; n = 3. (In SPR one partner is held on a chip, and binding of the other changes the refractive index at the surface.)

Test [4] has as its target T2, human C-C motif chemokine receptor-like …. In words: flow cytometry on cells; serially diluted biotin-labeled ligand on HEK-huCCRL2, HEK-muCCRL2 or parental HEK cells (2x10^4 cells/well, 384-well), PBS + 0.1% BSA, 4°C 45 min, detected with RRX-streptavidin; MFI normalized to parental HEK cell binding; EC50 from four-parameter fit.
The target is the same in test [5]. Nature of the test: flow cytometry on cells; competition: HEK-huCCRL2 or HEK-muCCRL2 cells incubated with serially diluted unlabeled competitor at 4°C 45 min, then 10 nM biotin-labeled chemerin at 4°C 45 min, RRX-streptavidin; IC50 from four-parameter fit.

B1: recombinant active mouse chemerin (residues 21-156), unlabeled (ligand, UniProt Q9DD06 21-156, looked up)
chain: EPELSETQRRSLQVALEEFHKHPPVQLAFQEIGVDRAEEVLFSAGTFVRLEFKLQQTNCPKKDWKKPECTIKPNGRRRKCLACIKMDPKGKILGRIVHCPILKQGPQDPQELQCIKIAQAGEDPHGYFLPGQFAFS
notes: active mouse chemerin, Uniprot entry Q9DD06, residues 21-156; Construct is named hIgG1 monovalent Fc-TEV-chemerin; also called murine chemerin; unlabeled murine chemerin; source: HEK 293F, transient, purified (Protein A, TEV cleavage, Protein A and Ni-NTA removal, Superdex 75 SEC); not shown: Fc (human IgG1, monovalent) with TEV site, N-terminal, cleaved
One may read the IC50 as the concentration needed to halve the response being measured. A high value points to weaker potency in that assay. The molecule B1 had an IC50 in test [1] of 21.1 nM.

B2: biotin-labeled recombinant active mouse chemerin (residues 21-156) (ligand, UniProt Q9DD06 21-156, looked up)
chain: EPELSETQRRSLQVALEEFHKHPPVQLAFQEIGVDRAEEVLFSAGTFVRLEFKLQQTNCPKKDWKKPECTIKPNGRRRKCLACIKMDPKGKILGRIVHCPILKQGPQDPQELQCIKIAQAGEDPHGYFLPGQFAFS
modifications: biotin (EZ-Link Sulfo-NHS-LC-Biotin, biotin-to-analyte molar ratio 5:1; any reactive primary amine)
notes: active mouse chemerin, Uniprot entry Q9DD06, residues 21-156; also called biotinylated murine chemerin; biotin-labeled murine chemerin; not shown: Fc (human IgG1, monovalent) with TEV site, N-terminal, cleaved
The term EC50 denotes the concentration needed to bring the measured effect to its halfway point. With B2, the EC50 in test [2] is 143 nM.

B3: biotin-labeled recombinant active human chemerin (residues 21-157) (ligand, UniProt Q99969 21-157, looked up)
chain: ELTEAQRRGLQVALEEFHKHPPVQWAFQETSVESAVDTPFPAGIFVRLEFKLQQTSCRKRDWKKPECKVRPNGRKRKCLACIKLGSEDKVLGRLVHCPIETQVLREAEEHQETQCLRVQRAGEDPHSFYFPGQFAFS
modifications: biotin (EZ-Link Sulfo-NHS-LC-Biotin, biotin-to-analyte molar ratio 5:1; any reactive primary amine)
notes: active human chemerin, Uniprot entry Q99969, residues 21-157; also called Biotin-chemerin; biotinylated chemerin; not shown: Fc (human IgG1, monovalent) with TEV site, N-terminal, cleaved
A word on the Kd: it is the equilibrium constant for the complex coming apart. By koff is commonly meant a measure of how fast the partners let go of each other. For orientation: kon means a measure of how fast the partners come together. Regarding B3, in test [3], the Kd came to 8.55 nM, the off-rate (koff) turned out to be 0.00184 s⁻¹ and the kon came to 297000 M⁻¹ s⁻¹. For the same molecule, the EC50 in test [4] came out at 4.2 nM.

B4: recombinant active human chemerin (residues 21-157), unlabeled (ligand, UniProt Q99969 21-157, looked up)
chain: ELTEAQRRGLQVALEEFHKHPPVQWAFQETSVESAVDTPFPAGIFVRLEFKLQQTSCRKRDWKKPECKVRPNGRKRKCLACIKLGSEDKVLGRLVHCPIETQVLREAEEHQETQCLRVQRAGEDPHSFYFPGQFAFS
notes: active human chemerin, Uniprot entry Q99969, residues 21-157; Construct is named hIgG1 monovalent Fc-TEV-chemerin; also called label-free chemerin; unlabeled chemerin; source: HEK 293F, transient, purified (Protein A, TEV cleavage, Protein A and Ni-NTA removal, Superdex 75 SEC); not shown: Fc (human IgG1, monovalent) with TEV site, N-terminal, cleaved
As for B4, the IC50 in test [5] came out at 7.55 nM. In test [3], the Kd was found to be 5.49 nM, the koff is 0.00116 s⁻¹ and the kon was 311000 M⁻¹ s⁻¹.

The values above are taken from publication PMC9858354, “Studies with neutralizing antibodies suggest CXCL8-mediated neutrophil activation is independent of C-C motif chemokine receptor-like 2 (CCRL2) ligand binding function” (PLOS ONE, 2023).
